Test [1] concerns the target OsCas12f1 from Oscillibacter sp. (Oscillibacter sp.). The test is described as follows: SEC; Cas12f1 RNP assembled in vitro at 4:3 molar ratio protein:sgRNA in buffer D (25 mM Tris-HCl pH 8.0, 150 mM NaCl, 2 mM DTT, 1 mM MgCl2) at 37 °C for 30 min; Superdex 200 Increase 10/300 equilibrated with buffer D; calibrated with Gel Filtration Standard (Bio-Rad); dimer in presence of sgRNA.

Test [2] addresses RhCas12f1 from Ruminiclostridium herbifermentans (Ruminiclostridium herbifermentans). The test is described as above.

From paper PMC10090079 come the findings set out here.

As usually defined, the stoichiometry N is the number of molecules, sites or subunits per partner or assembly.

As for “OsCas12f1 from Oscillibacter sp. (enzyme)”, the stoichiometry N in test [1] was 2. In the case of “RhCas12f1 from Ruminiclostridium herbifermentans (enzyme)”, the stoichiometry N in test [2] turned out to be 2.
